Test results as given in patent US20090081183A1, “HIV Transcription Repressor Complex and Compositions and Methods Based Thereon” (priority 1997, published 2009).
Like-named read-outs stand apart in the source and are kept apart here.

T1: LSF (Homo sapiens, UniProt Q12800, A491Q)
T1 construct: host or cells: in vitro transcription/translation in rabbit reticulocyte lysate (T7 RNA polymerase)
T1 sequence (Q12800 1-502 A491Q): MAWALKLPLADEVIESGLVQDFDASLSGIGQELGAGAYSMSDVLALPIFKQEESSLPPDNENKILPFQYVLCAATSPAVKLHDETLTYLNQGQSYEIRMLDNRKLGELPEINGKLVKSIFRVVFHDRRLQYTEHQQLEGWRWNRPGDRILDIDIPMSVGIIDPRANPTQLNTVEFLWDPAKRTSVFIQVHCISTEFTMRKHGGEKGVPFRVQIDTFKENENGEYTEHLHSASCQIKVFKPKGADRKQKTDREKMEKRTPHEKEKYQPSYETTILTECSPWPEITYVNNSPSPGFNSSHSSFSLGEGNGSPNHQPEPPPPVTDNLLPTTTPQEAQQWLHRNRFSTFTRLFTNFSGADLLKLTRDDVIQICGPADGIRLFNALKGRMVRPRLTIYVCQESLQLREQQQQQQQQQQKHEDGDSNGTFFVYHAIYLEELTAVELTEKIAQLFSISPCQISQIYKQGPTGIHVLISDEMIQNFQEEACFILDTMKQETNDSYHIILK

B1: LSF: lymphoid transcription factor (LBF-1, CP-2) that represses LTR-driven transcription (SEQ ID NO: 5) (protein, listed as Homo sapiens)
chain: T1 sequence (Q12800 1-502 A491Q)
B2: YZnFs: GST fused to all four YY1 zinc fingers without the YY1 amino-terminal region (protein)
chain: TIACPHKGCTKMFRDNSAMRKHLHTHGPRVHVCAECGKAFVESSKLKRHQLVHTGEKPFQCTFEGCGKRFSLDFNLRTHVRIHTGDRPYVCPFDGCNKKFAQSTNLKSHILTHAKAKNNQ
modifications: left off: a dimerising Fc or GST
notes: GST fused to all four YY1 zinc fingers without the YY1 amino-terminal region

Assays:
[1] = tested on: RCS oligonucleotide (−10 to +27 of HIV-1 LTR); assay type: binding
[2] = tested on: HIV-1 LTR; experiment: Tat-activated integrated LTR-CAT reporter assay in HeLa-CD4-LTR cells; assay type: cell-based
Protocol: Cell lines transfections and assays. Transfections of HeLa cells were performed as previously described (49). HeLa-CD4-LTR (9) cells were grown in DMEM supplemented with 10% FCS and transfected with 20 μg plasmid DNA (prepared using EndoFree plasmid kit, Qiagen, Valencia, Calif.) by calcium phosphate coprecipitation as per manufacturer's instructions (ProFection system, Promega, Madison, Wis.). After 30 minutes at room temperature, the solution was added to the cells (2.5-4×10^5 cells/plate). Twelve hours after transfection, the cells were washed with PBS and fed fresh medium. Forty-eight hours later the cells were harvested, cellular extracts prepared, and CAT assays performed as previously described (49). To control for the effect of transcription factor overexpression on general cellular promoters a reporter construct driven by the beta-actin promoter, pH[…]-actin-luciferase (66), was used in cotransfection and CAT expression normalized for luciferase activity. Other plasmids used have been previously described (2, 49). […] Up to 30 μl of cellular extract (normalized for protein concentration) in a final volume of 130 μl was used for luciferase reactions.
The LTR reporter carried by HeLa-CD4-LTR cell line exists within the native chromatin structure of the genome. […]

[3] = biological target: T1, LSF; experiment: In vitro protein interaction mapping: GST-YY1/GFI-1 chimeras retaining 35S-labeled LSF; assay type: binding; conditions: glutathione-agarose capture, 35S-methionine labeled LSF
Description: In vitro protein interaction mapping: Glutathione-S-transferase (GST)-YY1/GFI-1 chimeras (17) and G3ST-LSF deletion (54, 55) constructs were expressed and harvested in E. coli as previously described. Proteins were visualized by Coomassie brilliant blue staining and protein content was normalized by densitometric analysis. LSF was transcribed and translated in vitro by T7 RNA polymerase in rabbit reticulocyte (Promega, Madison, Wis.) in the presence of ^35S-methionine as per manufacturer's instruction (54). Following capture of GST-YY1/GFI-1 chimera proteins on glutathione-agarose beads, equal volumes of beads were incubated with ^35S-methionine labeled LSF in incubation buffer (17) for 1 hour at 4° C. The beads were washed in incubation buffer/100 mM KCl and resuspended in 20 μl 2×SDS loading buffer. Retained LSF was separated in a 10% SDS gel, dried, and visualized by autoradiography. Similarly, YY1 was transcribed and translated in vitro, incubated with captured GST-LSF constructs, and retained YY1 was by autoradiography following electrophoresis.
YY1 DNA-binding activity and many YY1-protein interactions map to the carboxyl-terminal zinc fingers of the molecule. Therefore, YY1 interaction domains were mapped using chimeric YY1 recombinants (FIG. 2c). […]

| Molecule | Complex formation with the RCS in EMSA ([1]; 10 ng protein alone) | Complex formation with the RCS in EMSA ([1]; 20 ng protein alone) | Tat-activated CAT expression from integrated LTR reporter ([2]; 200 ng pAR-Tat, 2.5 μg CMV expression plasmid, normalized to β-actin-luciferase) | Effect on YY1-mediated repression of integrated LTR-CAT expression ([2]; with YY1 transfection, trichostatin-A added to culture medium (data not shown)) | Binding of LSF in vitro by GST-fused construct [3] |
| --- | --- | --- | --- | --- | --- |
| B1 | formed a diffuse faintly visible EMSA band | induced a very prominent protein-DNA complex | had no effect on expression of CAT | augmented repression mediated by YY1 | – |
| B2 | – | – | – | – | binds LSF with equal avidity to intact GST-YY1 |
